# Key:
# [1] = target: amyloid-beta oligomer (AbO), from Abeta(1-40) peptide (UniProt P05067 672-711); assay: FRET fluorescence recovery (displacement from Au NRs@PDA); Au NRs@PDA quencher; LOD 50 pM (not a Kd); QD-aptamer conjugates (in deionized water) with 0.5 mg/mL Au NRs@PDA stock (55 uL to 20 uL), 30 min quench, then 120 min with protein at room temperature; excitation 405 nm; buffer, salt and pH not stated; details: protein: commercial; label: QDs625 (CdSe/CdS/ZnS) via 5' thiol
# [2] = target: amyloid-beta monomer (AbM) (UniProt P05067 672-711); assay: FRET fluorescence recovery (displacement from Au NRs@PDA); 20 nM AbM; no obvious recovery; QD-aptamer conjugates (in deionized water) with 0.5 mg/mL Au NRs@PDA stock (55 uL to 20 uL), 30 min quench, then 120 min with protein at room temperature; excitation 405 nm; buffer, salt and pH not stated; details: protein: commercial; label: QDs665 (CdSe/CdS/ZnS) via 5' thiol
# Chain of amyloid-beta monomer (AbM) (P05067 672-711): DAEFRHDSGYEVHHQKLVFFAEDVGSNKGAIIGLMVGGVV
# Chain of amyloid-beta oligomer (AbO), from Abeta(1-40) peptide (P05067 672-711): as above
Binder,binding result [1],binding result [2]
"GCCTGTGTTGGGGCGGGTGCG (ssDNA, 5'-HS-(CH2)6) [AbO aptamer]",binds,
"GCGGAGCGTGGCAGG (ssDNA, 5'-HS-(CH2)6) [tau aptamer]",,no binding

# — article PMC9697525, “A High-Quality CdSe/CdS/ZnS Quantum-Dot-Based FRET Aptasensor for the Simultaneous Detection of Two Different Alzheimer’s Disease Core Biomarkers”
